Assay results as given in patent US20250019439A1 (Adimab, published 2025).

Key:
[1] = target: T1, ADI-70326; experiment: SPR Carterra, yeast anti-ID
T1 construct: anti-CD3 antibody made in CHO cells, captured by anti-human Fc
Description: (§1) Kinetic analysis was conducted at 25° C. in an HBSTE running buffer system (Carterra Cat #3630) using a Carterra LSA (Carterra USA, Salt Lake City, UT). The sample compartment was maintained at 20° C. for the duration of each experiment.
(§2) For antibody capture experiments, a goat anti-human Fc antibody (Jackson ImmunoResearch) was covalently coupled to an HC30M sensor chip surface via standard amine coupling (1:1 EDC:NHS) and then blocked with ethanolamine (1.0 M, pH 8.5). Covalent coupling steps were performed in 25 mM MES buffer (Carterra, Cat #3625) plus 0.05% Tween20. The anti-CD3 antibodies (100 nM in running buffer) were flowed over discrete regions of interest on the chip surface for 5 minutes. […] Dissociation of the anti-idiotype antibodies was monitored for 300s. Several blank buffer samples were injected over the entire chip surface at the start of each non-regenerative kinetic cycle. The preceding blank buffer injection was used for blank surface subtraction. At the end of each non-regenerative kinetic cycle, all surfaces were regenerated via two 30s injections of 10 mM glycine, pH 1.7.
(§3) For data processing and fitting, sensorgrams were double reference subtracted with a baseline drift correction of 4 RU. Sensorgrams were y-aligned and baseline corrected, filtered and cropped to include only the association and dissociation steps. Data was fitted to a 1:1 binding model using Carterra Kinetics Data Analysis software version 1.7.1.3055.

[2] = target: T2, ADI-70327; experiment: SPR Carterra, yeast anti-ID
T2 construct: anti-CD3 antibody made in CHO cells, captured by anti-human Fc
Description: as §1, §2, §3

[3] = target: T3, ADI-70330; experiment: SPR Carterra, yeast anti-ID
T3 construct: anti-CD3 antibody made in CHO cells, captured by anti-human Fc
Description: as §1, §2, §3

[4] = target: T4, ADI-67445; experiment: SPR Carterra, yeast anti-ID
T4 construct: anti-CD3 antibody made in CHO cells, captured by anti-human Fc
Description: as §1, §2, §3

[5] = target: T5, ADI-26909; experiment: SPR Carterra, yeast anti-ID
T5 construct: anti-CD3 antibody made in CHO cells, captured by anti-human Fc
Description: as §1, §2, §3

[6] = target: T6, ADI-26921 IgG; experiment: SPR Carterra, yeast anti-ID
T6 construct: anti-CD3 IgG
Description: as §1, §2, §3

[7] = target: T7, ADI-26915; experiment: SPR Carterra, yeast anti-ID
T7 construct: anti-CD3 antibody made in CHO cells, captured by anti-human Fc
Description: as §1, §2, §3

[8] = target: T8, ADI-48587; experiment: SPR Carterra, yeast anti-ID
T8 construct: pH-dependent anti-CD3 antibody made in CHO cells
Description: as §1, §2, §3

[9] = target: T9, CTL-62223; experiment: SPR Carterra, yeast anti-ID
T9 construct: also called mosunetuzumab
Description: as §1, §2, §3

[10] = target: T10, CTL-62227; experiment: SPR Carterra, yeast anti-ID
T10 construct: also called odronextamab
Description: as §1, §2, §3

[11] = target: T11, CTL-62228; experiment: SPR Carterra, yeast anti-ID
T11 construct: also called glofitamab
Description: as §1, §2, §3

[12] = target: T12, CTL-62240; experiment: SPR Carterra, yeast anti-ID
T12 construct: also called ONO-4685
Description: as §1, §2, §3

[13] = target: T13, ADI-50024; experiment: SPR Carterra avidity, yeast anti-ID
T13 construct: anti-CD3 antibody made in CHO cells, captured by anti-human Fc
Description: as §1, §2, §3

[14] = target: T14, ADI-67450; experiment: SPR Carterra avidity, yeast anti-ID
T14 construct: anti-CD3 antibody made in CHO cells, captured by anti-human Fc
Description: as §1, §2, §3

[15] = target: T15, ADI-67447; experiment: SPR Carterra avidity, yeast anti-ID
T15 construct: anti-CD3 antibody made in CHO cells, captured by anti-human Fc
Description: as §1, §2, §3

[16] = target: T16, ADI-26913 IgG; experiment: SPR Carterra avidity, yeast anti-ID
T16 construct: anti-CD3 IgG
Description: as §1, §2, §3

[17] = target: T17, ADI-26919; experiment: SPR Carterra avidity, yeast anti-ID
T17 construct: anti-CD3 antibody made in CHO cells, captured by anti-human Fc
Description: as §1, §2, §3

[18] = target: T18, ADI-26916 IgG; experiment: SPR Carterra avidity, yeast anti-ID
T18 construct: anti-CD3 IgG
Description: as §1, §2, §3

[19] = target: T19, ADI-26912; experiment: SPR Carterra avidity, yeast anti-ID
T19 construct: anti-CD3 antibody made in CHO cells, captured by anti-human Fc
Description: as §1, §2, §3

[20] = target: T20, ADI-26924; experiment: SPR Carterra avidity, yeast anti-ID
T20 construct: anti-CD3 antibody made in CHO cells, captured by anti-human Fc
Description: as §1, §2, §3

[21] = target: T21, ADI-26943; experiment: SPR Carterra avidity, yeast anti-ID
T21 construct: anti-CD3 antibody made in CHO cells, captured by anti-human Fc
Description: as §1, §2, §3

[22] = target: T22, ADI-48576; experiment: SPR Carterra avidity, yeast anti-ID
T22 construct: pH-dependent anti-CD3 antibody made in CHO cells
Description: as §1, §2, §3

[23] = target: T23, ADI-48592; experiment: SPR Carterra avidity, yeast anti-ID
T23 construct: pH-dependent anti-CD3 antibody made in CHO cells
Description: as §1, §2, §3

[24] = target: T24, ADI-48650; experiment: SPR Carterra avidity, yeast anti-ID
T24 construct: pH-dependent anti-CD3 antibody made in CHO cells
Description: as §1, §2, §3

[25] = target: T25, ADI-74965; experiment: SPR Carterra avidity, yeast anti-ID
T25 construct: pH-dependent anti-CD3 antibody made in CHO cells
Description: as §1, §2, §3

[26] = target: T26, ADI-74966; experiment: SPR Carterra avidity, yeast anti-ID
T26 construct: pH-dependent anti-CD3 antibody made in CHO cells
Description: as §1, §2, §3

[27] = target: T27, ADI-74967; experiment: SPR Carterra avidity, yeast anti-ID
T27 construct: pH-dependent anti-CD3 antibody made in CHO cells
Description: as §1, §2, §3

[28] = target: T28, ADI-74968; experiment: SPR Carterra avidity, yeast anti-ID
T28 construct: pH-dependent anti-CD3 antibody made in CHO cells
Description: as §1, §2, §3

[29] = target: T29, ADI-76358; experiment: SPR Carterra avidity, yeast anti-ID
T29 construct: anti-CD3 antibody made in CHO cells, captured by anti-human Fc
Description: as §1, §2, §3

[30] = target: T30, ADI-76359; experiment: SPR Carterra avidity, yeast anti-ID
T30 construct: anti-CD3 antibody made in CHO cells, captured by anti-human Fc
Description: as §1, §2, §3

[31] = target: T31, ADI-76360; experiment: SPR Carterra avidity, yeast anti-ID
T31 construct: anti-CD3 antibody made in CHO cells, captured by anti-human Fc
Description: as §1, §2, §3

[32] = target: T32, ADI-76361; experiment: SPR Carterra avidity, yeast anti-ID
T32 construct: anti-CD3 antibody made in CHO cells, captured by anti-human Fc
Description: as §1, §2, §3

[33] = target: T33, ADI-76362; experiment: SPR Carterra avidity, yeast anti-ID
T33 construct: anti-CD3 antibody made in CHO cells, captured by anti-human Fc
Description: as §1, §2, §3

[34] = target: T34, ADI-22523 Fab; experiment: BLI; tip anti-ID IgG, solution ADI-22523 Fab
T34 construct: anti-CD3 Fab by papain digestion of the IgG
Description: (§4) ForteBio affinity measurements were performed generally as previously described (Estep et al., MAbs. 2013 5(2):270-8). Briefly, ForteBio affinity measurements were performed by loading antibody IgG or Fabs on-line onto AHC sensors. Sensors were equilibrated off-line in assay buffer for 30 minutes and then monitored on-line for 60 seconds for baseline establishment. For avid binding measurement, sensors with loaded antibodies were exposed to IgG or Fab solutions for 3 minutes, afterwards they were transferred to assay buffer for 3 minutes for off-rate measurement. Kinetics data were fit using a 1:1 binding model in the data analysis software provided by ForteBio to obtain equilibrium dissociation constant (KD=koff/kₒₙ) values. In each column, tip-immobilized antibodies are listed first and solution antibodies second.

[35] = target: T35, ADI-22523 IgG; experiment: BLI; tip anti-ID IgG, solution ADI-22523 IgG
T35 construct: anti-CD3 IgG
Description: as §4

[36] = target: T36, ADI-26906 IgG; experiment: SPR Carterra avidity, yeast anti-ID, *koff limit
T36 construct: anti-CD3 IgG
Description: as §1, §2, §3

[37] = target: T37, ADI-26920 IgG; experiment: SPR Carterra avidity, yeast anti-ID, *koff limit
T37 construct: anti-CD3 IgG
Description: as §1, §2, §3

[38] = target: T38, ADI-76357; experiment: SPR Carterra avidity, yeast anti-ID, *koff limit
T38 construct: anti-CD3 antibody made in CHO cells, captured by anti-human Fc
Description: as §1, §2, §3

T30 sequence (VH, as listed by the source, chain 1 of 2): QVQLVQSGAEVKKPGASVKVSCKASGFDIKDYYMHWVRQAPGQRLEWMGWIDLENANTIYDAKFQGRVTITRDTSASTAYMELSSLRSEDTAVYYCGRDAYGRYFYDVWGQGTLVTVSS
T30 sequence (VL, as listed by the source, chain 2 of 2): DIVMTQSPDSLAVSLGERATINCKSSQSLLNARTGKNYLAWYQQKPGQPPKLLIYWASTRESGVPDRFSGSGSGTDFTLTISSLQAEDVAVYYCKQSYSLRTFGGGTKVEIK
T3 sequence (VH, as listed by the source limits assumed, chain 1 of 2): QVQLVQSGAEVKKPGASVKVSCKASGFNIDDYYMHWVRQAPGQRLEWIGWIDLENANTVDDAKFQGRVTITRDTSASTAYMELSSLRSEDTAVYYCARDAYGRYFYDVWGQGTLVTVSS
T3 sequence (VL, as listed by the source limits assumed, chain 2 of 2): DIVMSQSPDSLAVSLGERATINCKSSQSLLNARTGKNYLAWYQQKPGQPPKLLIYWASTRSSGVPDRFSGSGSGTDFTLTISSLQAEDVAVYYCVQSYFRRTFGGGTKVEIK
T13 sequence (VH, as listed by the source limits assumed, chain 1 of 2): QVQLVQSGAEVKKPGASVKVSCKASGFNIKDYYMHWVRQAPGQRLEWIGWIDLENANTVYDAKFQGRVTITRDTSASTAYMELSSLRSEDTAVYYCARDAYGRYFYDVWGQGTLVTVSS
T32 sequence (VH, as listed by the source, chain 1 of 2): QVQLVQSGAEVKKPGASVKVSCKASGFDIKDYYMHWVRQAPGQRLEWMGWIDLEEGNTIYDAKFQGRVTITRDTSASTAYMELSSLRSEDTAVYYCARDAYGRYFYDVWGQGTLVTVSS
T29 sequence (VH, as listed by the source, chain 1 of 2): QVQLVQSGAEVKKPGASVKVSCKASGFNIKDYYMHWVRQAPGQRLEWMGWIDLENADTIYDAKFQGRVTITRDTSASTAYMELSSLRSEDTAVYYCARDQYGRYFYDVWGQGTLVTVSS
T29 sequence (VL, as listed by the source, chain 2 of 2): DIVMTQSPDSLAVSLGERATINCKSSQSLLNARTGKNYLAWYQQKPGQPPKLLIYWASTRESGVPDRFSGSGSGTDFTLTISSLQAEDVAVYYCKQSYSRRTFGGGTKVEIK
T25 sequence (VH, as listed by the source, chain 1 of 2): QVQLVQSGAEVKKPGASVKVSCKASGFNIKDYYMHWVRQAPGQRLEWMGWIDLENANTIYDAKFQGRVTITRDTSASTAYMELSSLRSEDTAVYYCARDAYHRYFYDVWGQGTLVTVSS
T25 sequence (VL, as listed by the source, chain 2 of 2): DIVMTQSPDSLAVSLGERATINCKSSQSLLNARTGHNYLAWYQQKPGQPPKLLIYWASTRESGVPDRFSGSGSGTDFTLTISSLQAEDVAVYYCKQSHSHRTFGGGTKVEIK
T28 sequence (VL, as listed by the source, chain 2 of 2): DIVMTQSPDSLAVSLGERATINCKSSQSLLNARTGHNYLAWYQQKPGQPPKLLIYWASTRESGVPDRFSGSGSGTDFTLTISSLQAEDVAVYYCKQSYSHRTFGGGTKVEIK
T9 sequence (VH, as listed by the source, chain 1 of 2): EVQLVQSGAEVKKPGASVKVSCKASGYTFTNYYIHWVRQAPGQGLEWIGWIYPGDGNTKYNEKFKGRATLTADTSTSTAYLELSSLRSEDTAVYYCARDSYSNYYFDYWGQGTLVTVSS
T9 sequence (VL, as listed by the source, chain 2 of 2): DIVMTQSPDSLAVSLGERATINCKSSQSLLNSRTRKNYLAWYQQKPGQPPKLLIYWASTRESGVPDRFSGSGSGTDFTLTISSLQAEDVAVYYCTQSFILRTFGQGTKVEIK
T31 sequence (VH, as listed by the source, chain 1 of 2): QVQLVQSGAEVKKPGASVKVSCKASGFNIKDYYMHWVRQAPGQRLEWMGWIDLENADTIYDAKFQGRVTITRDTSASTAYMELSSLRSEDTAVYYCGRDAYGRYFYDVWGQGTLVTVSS
T19 sequence (VH, as listed by the source, chain 1 of 2): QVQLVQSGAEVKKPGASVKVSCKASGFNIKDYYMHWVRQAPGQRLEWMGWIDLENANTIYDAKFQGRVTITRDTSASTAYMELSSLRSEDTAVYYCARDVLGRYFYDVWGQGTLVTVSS
T23 sequence (VH, as listed by the source, chain 1 of 2): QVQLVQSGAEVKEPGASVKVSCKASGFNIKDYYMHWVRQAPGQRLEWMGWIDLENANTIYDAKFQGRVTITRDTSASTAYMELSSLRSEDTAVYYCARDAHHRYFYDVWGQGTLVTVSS
T23 sequence (VL, as listed by the source, chain 2 of 2): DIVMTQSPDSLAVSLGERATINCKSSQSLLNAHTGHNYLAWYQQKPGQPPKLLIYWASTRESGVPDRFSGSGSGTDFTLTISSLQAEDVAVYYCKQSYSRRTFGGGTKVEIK
T22 sequence (VH, as listed by the source, chain 1 of 2): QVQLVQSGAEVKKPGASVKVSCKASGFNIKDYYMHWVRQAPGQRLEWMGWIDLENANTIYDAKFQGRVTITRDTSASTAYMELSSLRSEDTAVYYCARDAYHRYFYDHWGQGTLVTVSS
T22 sequence (VL, as listed by the source, chain 2 of 2): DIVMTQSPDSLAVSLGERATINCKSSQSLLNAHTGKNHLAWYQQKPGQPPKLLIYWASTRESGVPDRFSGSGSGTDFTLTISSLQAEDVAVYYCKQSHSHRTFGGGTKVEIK
T5 sequence (VH, as listed by the source limits assumed, chain 1 of 2): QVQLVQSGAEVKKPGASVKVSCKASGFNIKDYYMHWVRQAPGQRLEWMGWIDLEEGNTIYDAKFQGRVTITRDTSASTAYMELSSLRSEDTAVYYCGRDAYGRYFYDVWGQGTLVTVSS
T15 sequence (VH, as listed by the source limits assumed, chain 1 of 2): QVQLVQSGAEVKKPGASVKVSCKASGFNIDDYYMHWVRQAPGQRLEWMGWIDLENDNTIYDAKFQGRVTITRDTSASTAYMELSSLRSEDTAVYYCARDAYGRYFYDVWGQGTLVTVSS
T33 sequence (VH, as listed by the source, chain 1 of 2): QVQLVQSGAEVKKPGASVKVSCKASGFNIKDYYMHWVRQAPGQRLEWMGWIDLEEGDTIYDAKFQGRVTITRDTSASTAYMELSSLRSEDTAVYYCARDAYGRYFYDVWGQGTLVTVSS
T36 sequence (VH, as listed by the source limits assumed, chain 1 of 2): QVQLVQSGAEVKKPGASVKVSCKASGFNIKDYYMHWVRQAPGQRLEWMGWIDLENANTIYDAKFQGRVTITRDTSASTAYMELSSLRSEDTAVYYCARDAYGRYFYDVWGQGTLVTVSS
T1 sequence (VH, as listed by the source limits assumed, chain 1 of 2): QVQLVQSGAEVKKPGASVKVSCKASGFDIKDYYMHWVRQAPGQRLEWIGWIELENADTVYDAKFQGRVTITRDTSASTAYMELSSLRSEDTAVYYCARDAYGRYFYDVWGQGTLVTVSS

B1: ADI-34142 (antibody, V domains shown)
VH: EVQLLESGGGLVQPGGSLRLSCAASGFTFSSYAMSWVRQAPGKGLEWVSTISGSGGSTYYADSVKGRFTISRDNSKNTLYLQMNSLRAEDTAVYYCARLGGRRGSGSSYYYYYGMDVWGQGTTVTVSS
VL: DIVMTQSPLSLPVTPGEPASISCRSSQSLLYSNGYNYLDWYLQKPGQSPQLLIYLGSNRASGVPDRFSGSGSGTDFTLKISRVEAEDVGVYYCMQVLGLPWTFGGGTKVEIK
notes: anti-ID IgG
[1]
  binding result: no binding (tested: up to 200 nM)
[2]
  binding result: no binding (tested: up to 200 nM)
[3]
  binding result: no binding (tested: up to 200 nM)
[4]
  binding result: no binding (tested: up to 200 nM)
[5]
  binding result: no binding (tested: up to 200 nM)
[6]
  binding result: no binding (tested: up to 200 nM)
[7]
  binding result: no binding (tested: up to 200 nM)
[8]
  binding result: no binding (tested: up to 200 nM)
[9]
  binding result: no binding (tested: up to 200 nM)
[10]
  binding result: no binding (tested: up to 200 nM)
[11]
  binding result: no binding (tested: up to 200 nM)
[12]
  binding result: no binding (tested: up to 200 nM)
[13]
  binding result: binds
[14]
  binding result: binds
[15]
  Kd: 21 nM
[16]
  Kd: 11 nM
[17]
  Kd: 18 nM
[18]
  Kd: 21 nM
[19]
  binding result: binds
[20]
  Kd: 32 nM
[21]
  Kd: 6.5 nM
[22]
  Kd: 76 nM
[23]
  binding result: binds
[24]
  binding result: binds
[25]
  binding result: binds
[26]
  binding result: binds
[27]
  binding result: binds
[28]
  Kd: 45 nM
[29]
  binding result: binds
[30]
  Kd: 7.3 nM
[31]
  Kd: 36 nM
[32]
  binding result: binds
[33]
  binding result: binds
[34]
  Kd: 14.7 nM
[35]
  Kd: 4.11 nM
[36]
  Kd: 12 nM
[37]
  Kd: 6.1 nM
[38]
  Kd: 5.7 nM
